In PMC12369479:
Values joined by “and” are separate entries in the source; they are usually repeats but may differ in a detail not shown here. Identical values can stand only once.

Key:
[1] = substrate: Nc1ncnc2c1ncn2[C@@H]1O[C@H](CO)[C@@H](O)[C@H]1O; assay: purified protein, by the assay type; details: pH 7.5, 30 °C
Protocol: The ADK activity was measured spectrophotometrically on an Agilent 8453 UV-Vis spectrophotometer (www.agilent.com) at 30 °C using a coupled reaction with pyruvate kinase (PK) and lactate dehydrogenase (LDH) (www.sigmaaldrich.com) ([Blondin et al., 1994]). In this assay, PK converts ADP produced by ADK and phosphoenolpyruvate (PEP) to pyruvate. Subsequently, LDH then converts pyruvate to lactate using the coenzyme NADH, with the conversion monitored at 340 nm. The reaction was conducted in 50 mM Tris–HCl buffer at pH 7.5, containing 50 mM KCl, 6 mM MgCl2, 300 µM PEP, 200 µM NADH, 10 mM ATP, 2 U of PK, and 2.5 U of LDH, using various nucleoside substrates. Kinetic constants were determined using GraphPad Prism 8.0 software (www.graphpad.com). […] The activities of all five ADKs were also measured by HPLC ([Moffatt et al., 1991]). The reaction mixture comprised 50 mM Tris–HCl pH 7.5, 5 mM MgCl2, 0.5 mM DTT, 30 mM NaF, 5 mM ATP, 40 µM substrate, and 2–150 ng of purified ADK, depending on the isoform. The reaction was incubated at 30 °C for up to 1 h. […] Similarly, the conversion of cytokinin ribosides to monophosphates was followed on a LiChrosphere 60 RP-Select B (5 µm) LiChroCART column 125-4 column equilibrated with 10 mM triethylamine at pH 5.4 plus 10% methanol, and stepwise eluted with 100% methanol.

[2] = substrate: Nc1ncnc2c1ncn2[C@@H]1O[C@H](CO)[C@@H](O)[C@H]1O; assay: ADK activity, coupled reaction with PK and LDH; assay type: biochemical, Physcomitrella patens; details: other: PpADK1, 10 mM ATP, pH 7.5, 30 °C
Protocol: (§1) Substrate analogs were purchased from Sigma-Aldrich (www.sigmaaldrich.com). The ADK activity was measured spectrophotometrically on an Agilent 8453 UV-Vis spectrophotometer (www.agilent.com) at 30 °C using a coupled reaction with pyruvate kinase (PK) and lactate dehydrogenase (LDH) (www.sigmaaldrich.com) ([Blondin et al., 1994]). In this assay, PK converts ADP produced by ADK and phosphoenolpyruvate (PEP) to pyruvate. Subsequently, LDH then converts pyruvate to lactate using the coenzyme NADH, with the conversion monitored at 340 nm. The reaction was conducted in 50 mM Tris–HCl buffer at pH 7.5, containing 50 mM KCl, 6 mM MgCl2, 300 µM PEP, 200 µM NADH, 10 mM ATP, 2 U of PK, and 2.5 U of LDH, using various nucleoside substrates. Kinetic constants were determined using GraphPad Prism 8.0 software (www.graphpad.com). Each measurement was performed six times using repetitive purified enzymes. The activities of all five ADKs were also measured by HPLC ([Moffatt et al., 1991]). The reaction mixture comprised 50 mM Tris–HCl pH 7.5, 5 mM MgCl2, 0.5 mM DTT, 30 mM NaF, 5 mM ATP, 40 µM substrate, and 2–150 ng of purified ADK, depending on the isoform. The reaction was incubated at 30 °C for up to 1 h. […]

[3] = substrate: CC(C)=CCNc1ncnc2c1ncn2C1OC(CO)C(O)C1O; assay: ADK activity, coupled reaction with PK and LDH; assay type: biochemical, Physcomitrella patens; details: other: PpADK1, 10 mM ATP, pH 7.5, 30 °C
Protocol: as §1

[4] = substrate: Nc1ncnc2c1ncn2[C@@H]1O[C@H](CO)C[C@H]1O; assay: ADK activity, coupled reaction with PK and LDH; assay type: biochemical, Zea mays; details: other: ZmADK2, 10 mM ATP, pH 7.5, 30 °C
Protocol: (§2) Substrate analogs were purchased from Sigma-Aldrich (www.sigmaaldrich.com). The ADK activity was measured spectrophotometrically on an Agilent 8453 UV-Vis spectrophotometer (www.agilent.com) at 30 °C using a coupled reaction with pyruvate kinase (PK) and lactate dehydrogenase (LDH) (www.sigmaaldrich.com) ([Blondin et al., 1994]). In this assay, PK converts ADP produced by ADK and phosphoenolpyruvate (PEP) to pyruvate. Subsequently, LDH then converts pyruvate to lactate using the coenzyme NADH, with the conversion monitored at 340 nm. The reaction was conducted in 50 mM Tris–HCl buffer at pH 7.5, containing 50 mM KCl, 6 mM MgCl2, 300 µM PEP, 200 µM NADH, 10 mM ATP, 2 U of PK, and 2.5 U of LDH, using various nucleoside substrates. Kinetic constants were determined using GraphPad Prism 8.0 software (www.graphpad.com). Each measurement was performed six times using repetitive purified enzymes. The activities of all five ADKs were also measured by HPLC ([Moffatt et al., 1991]). The reaction mixture comprised 50 mM Tris–HCl pH 7.5, 5 mM MgCl2, 0.5 mM DTT, 30 mM NaF, 5 mM ATP, 40 µM substrate, and 2–150 ng of purified ADK, depending on the isoform. The reaction was incubated at 30 °C for up to 1 h. […] Similarly, the conversion of cytokinin ribosides to monophosphates was followed on a LiChrosphere 60 RP-Select B (5 µm) LiChroCART column 125-4 column equilibrated with 10 mM triethylamine at pH 5.4 plus 10% methanol, and stepwise eluted with 100% methanol.

[5] = substrate: Nc1nc2c(ncn2[C@@H]2O[C@H](CO)[C@@H](O)[C@H]2O)c(=O)[nH]1; assay: ADK activity, coupled reaction with PK and LDH; assay type: biochemical, Zea mays; details: other: ZmADK2, 10 mM ATP, pH 7.5, 30 °C
Protocol: as §2

[6] = substrate: Nc1ncnc2c1ncn2[C@@H]1O[C@H](CO)[C@@H](O)[C@H]1O; assay: ADK activity, coupled reaction with PK and LDH; assay type: biochemical, Zea mays; details: other: ZmADK2, 10 mM ATP, pH 7.5, 30 °C
Protocol: as §2

[7] = substrate: CC(C)=CCNc1ncnc2c1ncn2C1OC(CO)C(O)C1O; assay: ADK activity, coupled reaction with PK and LDH; assay type: biochemical, Zea mays; details: other: ZmADK2, 10 mM ATP, pH 7.5, 30 °C
Protocol: as §2

[8] = substrate: Nc1ccn([C@@H]2O[C@H](CO)[C@@H](O)[C@H]2O)c(=O)n1; assay: ADK activity, coupled reaction with PK and LDH; assay type: biochemical, Zea mays; details: other: ZmADK2, 10 mM ATP, pH 7.5, 30 °C
Protocol: as §2

[9] = substrate: O=c1[nH]c(=O)c2ncn([C@@H]3O[C@H](CO)[C@@H](O)[C@H]3O)c2[nH]1; assay: ADK activity, coupled reaction with PK and LDH; assay type: biochemical, Zea mays; details: other: ZmADK2, 10 mM ATP, pH 7.5, 30 °C
Protocol: as §2

[10] = substrate: OC[C@H]1O[C@@H](n2cnc3c(O)ncnc32)[C@H](O)[C@@H]1O; assay: ADK activity, coupled reaction with PK and LDH; assay type: biochemical, Zea mays; details: other: ZmADK2, 10 mM ATP, pH 7.5, 30 °C
Protocol: as §2

[11] = substrate: Nc1ncnc2c1ncn2[C@@H]1O[C@H](CO)[C@@H](O)[C@@H]1O; assay: ADK activity, coupled reaction with PK and LDH; assay type: biochemical, Zea mays; details: other: ZmADK2, 10 mM ATP, pH 7.5, 30 °C
Protocol: as §2

B1: PpADK2 (Physcomitrium patens) (protein)
chain: MASEGVLLGMGNPLLDISCVVDEAFLEKYGLTLNNAILAEDKHLPIYKELAGRPDVEYIAGGATQNTIRIAQWMLREPKATSYIGCVGKDEFGDRMYKLASEGGVNIQYDVDEELPTGTCGVLVVKGERSLVANLSAAKKYKIDHLKKPENWVCVERAKFIYSSGFFLAVSPESMMTVARHAAETGKYYMINLAAPFICQFKDLMELFPYVDFIFGNESEARTFAQVQGWETEDTKIIAVKLAALPKASGTHKRVAVITQGTDPTIVSVDGQVTEIPITVIPKNKLVDTNAAGDAFVGGFLSQLVLGKDIVECVRAGNYASSIIIQRSGCTFPLKPCFQSE
Km ([1]; other: PpADK2, 10 mM ATP): 0.54 ± 0.05 µM

B2: PpADK1 (Physcomitrium patens) (protein)
chain: MASEGVLLGMGNPLLDISCVVDDAFLEKYGLTLNNAILAEDKHLPMYKELAANPDVEYIAGGATQNTIRIAQWMLGESNATSYFGCVGKDEYGDRMFKLASEGGVNIRYDVDEDLPTGTCGVLVVKGERSLVANLSAANKYKIDHLKKPENWAFVEKAKYIYSAGFFLTVSPESMMTVAKHAAETGKYYMINLAAPFICQFFKDPLMELFPYVDFIFGNESEARAFAQVQGWETEDTKVIAVKLAALPKAGGTHKRVAVITQGTDPTIVAEDGKVTEFPVTPIPKEKLVDTNAAGDSFVGGFLSQLVLGKDIAQCVRAGNYAASVIIQRSGCTFPSKPSFESQ
notes: made in house; host or cells: E. coli T7 Express Iq
Km [2]: 0.71 ± 0.05 µM | Km [3]: 12.1 ± 2.5 µM

B3: ZmADK1 (Zea mays) (protein)
chain: MAASEGVLLGMGNPLLDISAVVDDAFLAKYDIKLNNAILAEEKHSPMYDELASNSNVEYIAGGATQNSIRVAQWMLQTPGATSYMGCIGKDKFGEEMKKNAQAAGVTAHYYEDETAPTGTCAVCVVGGERSLIANLSAANCYKSEHLKRPENWALVEKAKYIYIAGFFLTVSPDSIQLVAEHAAANNKVFLMNLSAPFICEFFYDAQEKVLPYADFIFGNETEAKIFAKVRGWETENVEEIALKISQLPLASGKQKRIAVITQGADPVVVAEDGKVKTFPVILLPKEKLVDTNGAGDAFVGGFLSRLVQGKSIEDCVTAGCYAANVVIQRPGCTYPEKPDFN
Km ([1]; other: ZmADK1, 10 mM ATP): 0.62 ± 0.11 µM

B4: ZmADK2 (Zea mays; T4S) (protein)
chain: MAASEGVLLGMGNPLLDISAVVDDAFLTKYDIKLNNAILAEEKHLPMYDELASKSNVEYIAGGATQNSIRVAQWMLQTPGATSYMGCIGKDKFGEEMKKNAQAAGVTAHYYEDETAPTGTCAVCVVGGERSLIANLSAANCYKSEHLKRPENWALVEKAKYIYIAGFFLTVSPDSIQLVAEHAAANNKVFLMNLSAPFICEFFRDAQEKVLPYADYIFGNETEAKIFAKVRGWETENIEEIALKISQLPLASGKQKRIAVITQGADPVVVAEDGKVKTFPVILLPKEKLVDTNGAGDAFVGGFLSQLVLGKGIEDCVRAGCYAANVIIQRPGCTYPEKPDFN
Km [4]: 170 µM and 173 ± 11 µM | kcat [4]: 0.43 ± 0.01 s⁻¹ | Km [5]: 218 ± 23 µM | kcat [5]: 0.48 ± 0.02 s⁻¹ | Km [6]: 0.65 ± 0.09 µM | Km [7]: 9.8 ± 1.5 µM | Km [8]: 313 ± 28 µM | kcat [8]: 0.23 ± 0.01 s⁻¹ | Km [9]: 178 ± 10 µM | kcat [9]: 0.55 ± 0.01 s⁻¹ | Km [10]: 420 ± 44 µM | kcat [10]: 0.57 ± 0.02 s⁻¹ | Km [11]: 524 ± 51 µM | kcat [11]: 0.24 ± 0.02 s⁻¹
